Test results as given in PMC7351598.
Read-outs that look alike come from different tables or passages of the source.

Legend:
Assay in all cases: MST
[1] = target: 6xHis-MBP-SpyCas9 (Streptococcus pyogenes) (UniProt Q99ZW2)
[2] = target: 6xHis-MBP-SpyCas9 (Streptococcus pyogenes) (UniProt Q99ZW2); remark: listed apart in the source
[3] = target: 6xHis-MBP-SpyCas9(D10A) (Streptococcus pyogenes) (UniProt Q99ZW2)
[4] = target: 6xHis-MBP-SpyCas9(H840A) (Streptococcus pyogenes) (UniProt Q99ZW2)
[5] = target: 6xHis-MBP-deadSpyCas9 (Streptococcus pyogenes) (UniProt Q99ZW2)
[6] = target: Cas9-gRNA prebound to AcrIIA2b.3 (Streptococcus pyogenes | not stated) (UniProt Q99ZW2)

Substance | Kd [1] | Kd [2] | Kd [3] | Kd [4] | Kd [5] | Kd [6]
AcrIIA1 (natural protein) | 31 nM | 23 nM | 38 nM | 2000 nM | 905 nM | 24 nM
AcrIIA2b.3 (natural protein) | – | 20 nM | – | – | – | –
